Laboratory results published in paper PMC8294589.

Biological target: PP2A-B56γ1 holoenzyme (UniProt P30153)
Sequence (P30153 whole entry, chain 1 of 3, other chains not shown): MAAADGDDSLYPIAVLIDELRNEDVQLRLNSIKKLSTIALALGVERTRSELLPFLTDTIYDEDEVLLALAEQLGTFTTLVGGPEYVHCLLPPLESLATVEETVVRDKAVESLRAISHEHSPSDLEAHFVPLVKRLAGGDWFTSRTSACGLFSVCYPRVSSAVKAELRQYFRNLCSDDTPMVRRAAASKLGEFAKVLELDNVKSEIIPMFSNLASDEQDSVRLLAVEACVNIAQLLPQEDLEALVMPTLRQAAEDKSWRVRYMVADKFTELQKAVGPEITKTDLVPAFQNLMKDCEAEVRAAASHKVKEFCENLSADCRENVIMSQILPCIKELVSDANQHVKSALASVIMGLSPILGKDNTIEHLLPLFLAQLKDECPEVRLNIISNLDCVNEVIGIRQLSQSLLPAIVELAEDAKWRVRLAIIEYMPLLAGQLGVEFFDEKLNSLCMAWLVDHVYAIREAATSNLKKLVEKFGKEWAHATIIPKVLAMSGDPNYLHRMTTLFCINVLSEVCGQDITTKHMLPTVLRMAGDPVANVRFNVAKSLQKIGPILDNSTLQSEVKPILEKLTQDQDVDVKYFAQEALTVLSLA
Sequence (P67775 whole entry, chain 2 of 3, other chains not shown, further chain): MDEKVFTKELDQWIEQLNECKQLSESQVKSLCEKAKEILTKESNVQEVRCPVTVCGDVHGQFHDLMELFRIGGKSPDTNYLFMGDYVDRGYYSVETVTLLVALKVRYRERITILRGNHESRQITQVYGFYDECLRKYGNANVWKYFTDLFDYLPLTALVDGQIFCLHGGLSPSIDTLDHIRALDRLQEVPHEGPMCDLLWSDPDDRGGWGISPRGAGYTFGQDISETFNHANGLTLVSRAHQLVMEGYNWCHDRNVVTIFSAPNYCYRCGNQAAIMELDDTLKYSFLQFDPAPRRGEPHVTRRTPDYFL

pS133-CREB (129–154) peptide, sequence (P16220 129-154): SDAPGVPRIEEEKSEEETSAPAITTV

Km of PP2A-B56γ1 holoenzyme phosphatase activity toward pS133-CREB (129–154), steady-state kinetics with a phosphate sensor (peptide 3.9 to 250 μM): 10.3 μM
Substance: pS133-CREB (129–154) peptide (from UniProt P16220-2 129-154)
